B1: Full-length mouse BICDR1 (natural protein)
chain: MSAFCLGLAGRASAPAEPDSACCMELPAGAGDAVRSPATAAALVSFPGGPGELELALEEELALLAAGERSSEPGEHPQAEPESPVEGHGPPLPPPPTQDPELLSVIRQKEKDLVLAARLGKALLERNQDMSRQYEQMHKELTDKLEHLEQEKHELRRRFENREGEWEGRVSELETDVKQLQDELERQQLHLREADREKTRAVQELSEQNQRLLDQLSRASEVERQLSMQVHALKEDFREKNSSTNQHIIRLESLQAEIKMLSDRKRELEHRLSATLEENDLLQGTVEELQDRVLILERQGHDKDLQLHQSQLELQEVRLSYRQLQGKVEELTEERSLQSSAATSTSLLSEIEQSMEAEELEQEREQLRLQLWEAYCQVRYLCSHLRGNDSADSAVSTDSSMDESSETSSAKDVPAGSLRTALNDLKRLIQSIVDGVEPTVTLLSVEMTALKEERDRLRVTSEDKEPKEQLQKAIRDRDEAIAKKNAVELELAKCKMDMMSLNSQLLDAIQQKLNLSQQLEAWQDDMHRVIDRQLMDTHLKEQSRPAAAAFPRGHGVGRGQEPSTADGKRLFSFFRKI
B2: Dynein light intermediate chain (natural protein)
chain: MAPVGVEKKLLLGPNGPAVAAAGDLTSEEEEGQSLWSSILSEVSTRARSKLPSGKNILVFGEDGSGKTTLMTKLQGAEHGKKGRGLEYLYLSVHDEDRDDHTRCNVWILDGDLYHKGLLKFAVSAESLPETLVIFVADMSRPWTVMESLQKWASVLREHIDKMKIPPEKMRELERKFVKDFQDYMEPEEGCQGSPQRRGPLTSGSDEENVALPLGDNVLTHNLGIPVLVVCTKCDAVSVLEKEHDYRDEHLDFIQSHLRRFCLQYGAALIYTSVKEEKNLDLLYKYIVHKTYGFHFTTPALVVEKDAVFIPAGWDNEKKIAILHENFTTVKPEDAYEDFIVKPPVRKLVHDKELAAEDEQVFLMKQQSLLAKQPATPTRASESPARGPSGSPRTQGRGGPASVPSSSPGTSVKKPDPNIKNNAASEGVLASFFNSLLSKKTGSPGSPGAGGVQSTAKKSGQKTVLSNVQEELDRMTRKPDSMVTNSSTENEA

What all share (assay): cryo-EM structure
For data set [1], the target named is Dynactin (pig (endogenous in pig brain)) (UniProt F2Z5G5).
The data set “cryo-EM structure” concerns the molecule itself.
The target of the data set “Full-length mouse BICDR1” is B1.

“Human cytoplasmic dynein-1 (from UniProt Q14204;Q13409;O43237;Q9NP97) (complex)” came in with a stoichiometry N (dynein dimers in the complex) in data set [1] of 2. For B1, the stoichiometry N (adaptors per dynein-dynactin complex) in data set [1] stood at 2. Also, the binding result in “cryo-EM structure” is “binds”.

B2: the binding result in the data set with Full-length mouse BICDR1 was “binds”.

Values taken from article doi:10.1101/2022.03.17.482250 (bioRxiv, 2022).
